The text below walks through data of patent publication US7892803B2, “Gene and uses therefor to modify pasture qualities of crops” (Commonwealth Scientific and Industrial Research Organisation, priority 2001, dated 2011).

Data set [1] in a line: LAR enzyme activity of recombinant LAR protein in E. coli extracts (radio-HPLC). The class given is biochemical. Particulars: bacterial protein extracts after induction, HPLC system IIa. As for the experimental part:
LAR was assayed essentially as described by Tanner and Kristiansen (1993). The standard assay contained in total volume of 100 μl assay buffer containing 10 mg glycerol, 10 μmol NaPi, 0.5 μmol NADPH, 0.1 μmol DDT, all adjusted to pH7 with NaOH, 0.25 nmol [^3H]-3,4-cis-leucocyanidin (1 μCi), or other suitable flavan-3,4-diol substrate (Table 2), and enzyme extract. The assay was initiated by the addition of an appropriate amount of enzyme extract and incubated at 30° C. for 30 min. The incubation was terminated by extraction with 0.2 ml ethyl acetate containing 10 nmol of unlabelled catechin as carrier. The ethyl acetate extracts were dried under a stream of nitrogen at room temperature. The residue was dissolved in 100 μl of water and analyzed by radio-HPLC using system II (see above and Table 2). In each radio-chromatogram of the assay mixtures derived from the leaf extracts referred to herein, only the substrate, 3-4-cis-leucocyanidin, or the product, catechin were detected.
The complete amino acid coding sequence of the LAR cDNA was introduced into the BamHI site of the pET3a expression vector to express the LAR382 polypeptide containing the 14 amino acid N-terminal T7 Tag. The resultant expression construct was then introduced into E. coli strain Rosetta(DE3) RARE/pLysS.
A truncated form of LAR comprising amino acids 1-317 was also introduced into the BamHI and HindIII sites of pQE30 expression vector to express the LAR317 polypeptide containing the 10 amino acid N-terminal RGS-6×His epitope. The resultant expression construct was then introduced into E. coli strain XL1 Blue.
Expression of the full length recombinant LAR382 protein, or the truncated form LAR317, was induced as described in the preceding Example. Bacterial protein extracts were assayed for LAR enzyme activity, essentially as described in Example 1.

Data set [2] is described as follows: Storage stability of partially purified LAR enzyme preparation. The class given is physicochemical. The note with it: 2,360 fold purified concentrate mixed with equal volume of glycerol, stored at −20 C. As for the experimental part:
Fractions with LAR activity were combined and then concentrated to a final volume of 1 ml by applying nitrogen over a YM10 membrane (Amicon). The concentrate was mixed with an equal volume of glycerol and stored at −20 C.
The final yield of enzyme activity was 8.7% and purification was 2,360 fold.

B1: LAR382: Full length recombinant D. uncinatum LAR polypeptide (SEQ ID NO: 29) with N-terminal T7 Tag, expressed in E. coli from pET3a (protein, listed as Desmodium uncinatum)
chain: MTVSGAIPSMTKNRTLVVGGTGFIGQFITKASLGFGYPTFLLVRPGPVSPSKAVIIKTFQDKGAKVIYGVINDKECMEKILKEYEIDVVISLVGGARLLDQLTLLEAIKSVKTIKRFLPSEFGHDVDRTDPVEPGLTMYKEKRLVRRAVEEYGIPFTNICCNSIASWPYYDNCHPSQVPPPMDQFQIYGDGNTKAYFIDGNDIGKFTMKTIDDIRTLNKNVHFRPSSNCYSINELASLWEKKIGRTLPRFTVTADKLLAHAAENIIPESIVSSFTHDIFINGCQVNFSIDEHSDVEIDTLYPDEKFRSLDDCYEDFVPMVHDKIHAGKSGEIKIKDGKPLVQTGTIEEINKDIKTLVETQPNEEIKKDMKALVEAVPISAMG
modifications: N-terminal T7 tag
On to B1, for which the “LAR enzyme activity (reduction of leucocyanidin to catechin)” value was “catalysed the reduction of [4-^3H]-2,3-trans-3,4-cis-leucocyanidin” in data set [1] and “LAR activity sufficient to convert all of the leucocyanidin substrate into catechin” in data set [1] (listed as pET LAR382).

B2: LAR: Leucoanthocyanidin reductase enzyme partially purified 2,360 fold from young leaves of Desmodium uncinatum (protein, listed as Desmodium uncinatum)
chain: B1 chain
On to B2, for which, in data set [2], the “stability of LAR enzyme activity on storage” value was “stable for up to one year”.

B3: LAR317: Truncated recombinant LAR, amino acids 1-317 of SEQ ID NO: 29, with N-terminal RGS-6×His epitope, expressed in E. coli (protein, listed as Desmodium uncinatum)
chain: MTVSGAIPSMTKNRTLVVGGTGFIGQFITKASLGFGYPTFLLVRPGPVSPSKAVIIKTFQDKGAKVIYGVINDKECMEKILKEYEIDVVISLVGGARLLDQLTLLEAIKSVKTIKRFLPSEFGHDVDRTDPVEPGLTMYKEKRLVRRAVEEYGIPFTNICCNSIASWPYYDNCHPSQVPPPMDQFQIYGDGNTKAYFIDGNDIGKFTMKTIDDIRTLNKNVHFRPSSNCYSINELASLWEKKIGRTLPRFTVTADKLLAHAAENIIPESIVSSFTHDIFINGCQVNFSIDEHSDVEIDTLYPDEKFRSLDDCYEDFV
modifications: N-terminal RGS-6xHis tag
As to B3, the “LAR enzyme activity (reduction of leucocyanidin to catechin)” value in data set [1] is “catalysed the reduction of [4-^3H]-2,3-trans-3,4-cis-leucocyanidin”; in data set [1] (listed as pET LAR317), “LAR activity sufficient to convert all of the leucocyanidin substrate into catechin”.
